The target in assay [1] is T1, recombinant soluble human CEA (extracellular domain, AA 1-687 of huCEA, C-terminal 6xHis) (human, UniProt P06731 35-687).
T1 construct: also called sCEA; soluble CEA
T1 sequence: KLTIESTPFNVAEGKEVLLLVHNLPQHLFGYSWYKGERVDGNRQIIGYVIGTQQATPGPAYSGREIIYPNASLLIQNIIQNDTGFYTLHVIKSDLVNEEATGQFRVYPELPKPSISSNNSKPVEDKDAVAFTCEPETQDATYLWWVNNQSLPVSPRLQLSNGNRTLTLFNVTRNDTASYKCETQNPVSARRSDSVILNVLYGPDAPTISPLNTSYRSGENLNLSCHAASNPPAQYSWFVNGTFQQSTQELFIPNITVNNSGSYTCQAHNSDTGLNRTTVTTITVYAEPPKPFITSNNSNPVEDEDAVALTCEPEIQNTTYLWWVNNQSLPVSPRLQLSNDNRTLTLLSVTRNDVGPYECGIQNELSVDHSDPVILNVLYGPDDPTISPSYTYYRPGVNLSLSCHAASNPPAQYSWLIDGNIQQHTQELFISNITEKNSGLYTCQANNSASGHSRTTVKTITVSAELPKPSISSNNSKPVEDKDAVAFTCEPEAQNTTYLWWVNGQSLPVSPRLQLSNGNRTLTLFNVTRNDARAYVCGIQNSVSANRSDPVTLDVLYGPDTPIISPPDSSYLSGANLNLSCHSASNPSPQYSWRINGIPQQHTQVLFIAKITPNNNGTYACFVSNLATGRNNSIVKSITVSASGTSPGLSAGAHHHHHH
In words: SPR; kinetics on huCEA, IgG format.

The target in assay [2] is T2, human CEA on cells (MKN45, LOVO, NCI-H2122, LS174T, CT26/CEA) (human, UniProt P06731 35-685).
T2 construct: Full-length human CEA, endogenous on tumour cell lines or transduced; also called native CEA on living cells; huCEA surface protein
T2 sequence: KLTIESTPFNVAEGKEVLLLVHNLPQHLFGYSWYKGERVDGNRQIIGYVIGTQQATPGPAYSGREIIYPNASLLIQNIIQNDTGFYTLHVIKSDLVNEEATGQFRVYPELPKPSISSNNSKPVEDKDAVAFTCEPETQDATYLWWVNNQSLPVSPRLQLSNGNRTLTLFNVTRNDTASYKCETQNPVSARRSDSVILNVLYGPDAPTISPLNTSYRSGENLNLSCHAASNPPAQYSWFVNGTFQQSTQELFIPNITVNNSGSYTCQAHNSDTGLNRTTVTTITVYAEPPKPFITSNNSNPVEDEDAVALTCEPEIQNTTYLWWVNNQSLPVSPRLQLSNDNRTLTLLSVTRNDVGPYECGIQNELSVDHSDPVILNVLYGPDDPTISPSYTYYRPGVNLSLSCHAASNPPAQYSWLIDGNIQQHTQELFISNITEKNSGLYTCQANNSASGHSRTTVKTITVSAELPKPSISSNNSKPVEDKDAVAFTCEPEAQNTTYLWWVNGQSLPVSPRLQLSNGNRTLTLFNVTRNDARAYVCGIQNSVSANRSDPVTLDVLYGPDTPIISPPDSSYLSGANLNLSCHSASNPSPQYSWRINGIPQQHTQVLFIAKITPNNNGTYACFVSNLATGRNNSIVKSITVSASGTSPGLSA
The assay is described as follows: flow cytometry on MKN45 cells.

Assay [3] deals with T3, chimeric construct (CHIM) (human).
T3 construct: CEACAM6 AA 1-273 joined to the membrane-peripheral region containing domain B3 of CEA (AA 596-687), C-terminal 6xHis; also called chimeric CEA
T3 chain: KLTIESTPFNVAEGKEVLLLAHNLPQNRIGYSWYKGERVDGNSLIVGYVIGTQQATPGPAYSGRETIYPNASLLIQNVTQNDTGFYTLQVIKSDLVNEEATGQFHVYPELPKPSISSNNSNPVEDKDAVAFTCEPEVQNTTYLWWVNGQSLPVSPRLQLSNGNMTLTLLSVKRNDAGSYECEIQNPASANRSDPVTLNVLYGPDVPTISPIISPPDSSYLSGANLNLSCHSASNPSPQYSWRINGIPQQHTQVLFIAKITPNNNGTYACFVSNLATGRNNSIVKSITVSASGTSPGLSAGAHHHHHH
In words: SPR; binding to CHIM.

B1: BGA6710 variant K13E, Y57K (antibody, V domains shown)
VH: QVQLVQSGAEVKEPGASVKVSCKASGYIFTSYYLHWVRQAPGQGLEWIGYINPQTGKTSYAQKFQGRVTMTRDTSTSTVYMELSSLRSEDTAVYYCAREYGNYNYPLDYWGQGTLVTVSS
VL: DIQMTQSPSSLSASVGDRVTITCRASENQYGYLAWYQQKPGKVPKLLIYNYKNLVEGVPSRFSGSGSGTDFTLTISSLQPEDVATYYCQHHLGTPYTFGQGTKVEIK
notes: IgG format; both changes in the heavy chain
As for B1, the Kd in assay [1] stood at 1.34 nM.

B2: BGA6710 variant Y57D (antibody, V domains shown)
VH: QVQLVQSGAEVKKPGASVKVSCKASGYIFTSYYLHWVRQAPGQGLEWIGYINPQTGDTSYAQKFQGRVTMTRDTSTSTVYMELSSLRSEDTAVYYCAREYGNYNYPLDYWGQGTLVTVSS
VL: DIQMTQSPSSLSASVGDRVTITCRASENQYGYLAWYQQKPGKVPKLLIYNYKNLVEGVPSRFSGSGSGTDFTLTISSLQPEDVATYYCQHHLGTPYTFGQGTKVEIK
notes: IgG format; change in the heavy chain
In assay [2], B2 registered an EC50 of 0.56 µg/mL and a Top of 949. Also, in assay [1], the dissociation constant Kd was 1.82 nM, the off-rate constant (koff) turned out to be 0.000195 s⁻¹ and the on-rate constant (kon) worked out at 107000 M⁻¹ s⁻¹.

B3: BGA6710 variant Q54E, Y57K (antibody, V domains shown)
VH: QVQLVQSGAEVKKPGASVKVSCKASGYIFTSYYLHWVRQAPGQGLEWIGYINPETGKTSYAQKFQGRVTMTRDTSTSTVYMELSSLRSEDTAVYYCAREYGNYNYPLDYWGQGTLVTVSS
VL: DIQMTQSPSSLSASVGDRVTITCRASENQYGYLAWYQQKPGKVPKLLIYNYKNLVEGVPSRFSGSGSGTDFTLTISSLQPEDVATYYCQHHLGTPYTFGQGTKVEIK
notes: as for B1
With B3, in assay [2], the EC50 came to 0.58 µg/mL and the Top amounted to 902. In assay [1], the Kd came to 2.36 nM, the off-rate constant (koff) is 0.00026 s⁻¹ and the kon was 110000 M⁻¹ s⁻¹.

B4: BGA6710 variant Q54E, Y57E (antibody, V domains shown)
VH: QVQLVQSGAEVKKPGASVKVSCKASGYIFTSYYLHWVRQAPGQGLEWIGYINPETGETSYAQKFQGRVTMTRDTSTSTVYMELSSLRSEDTAVYYCAREYGNYNYPLDYWGQGTLVTVSS
VL: DIQMTQSPSSLSASVGDRVTITCRASENQYGYLAWYQQKPGKVPKLLIYNYKNLVEGVPSRFSGSGSGTDFTLTISSLQPEDVATYYCQHHLGTPYTFGQGTKVEIK
notes: as for B1
In assay [2], B4 showed an EC50 of 0.65 µg/mL and a Top of 927. Also, in assay [1], the equilibrium dissociation constant (Kd) is 2.14 nM, the koff came to 0.00025 s⁻¹ and the kon was determined as 117000 M⁻¹ s⁻¹.

B5: BGA1789 (antibody, human IgG1, V domains shown)
VH: QVQLVQSGAEVKKPGASVKVSCKASGYIFTSYWLHWVRQAPGQGLEWIGYINPQTGYTSYAQKFQGRVTMTRDTSTSTVYMELSSLRSEDTAVYYCAREYGNYNYPLDYWGQGTLVTVSS
VL: DIQMTQSPSSLSASVGDRVTITCRASENQYGYLAWYQQKPGKVPKLLIYNYKNLVEGVPSRFSGSGSGTDFTLTISSLQPEDVATYYCQHHLGTPYTFGQGTKVEIK
notes: Built on the BGA7592-1F-ph-M (BGA2433) template; human IgG1/kappa
As for B5, in assay [3], the dissociation constant (Kd) came out at 14.4 nM, the off-rate (koff) is 0.000463 s⁻¹ and the kon was found to be 32100 M⁻¹ s⁻¹.

B6: BGA6710 variant L92E (antibody, V domains shown)
VH: QVQLVQSGAEVKKPGASVKVSCKASGYIFTSYYLHWVRQAPGQGLEWIGYINPQTGYTSYAQKFQGRVTMTRDTSTSTVYMELSSLRSEDTAVYYCAREYGNYNYPLDYWGQGTLVTVSS
VL: DIQMTQSPSSLSASVGDRVTITCRASENQYGYLAWYQQKPGKVPKLLIYNYKNLVEGVPSRFSGSGSGTDFTLTISSLQPEDVATYYCQHHEGTPYTFGQGTKVEIK
notes: IgG format; L92E in the light chain
B6: in assay [2], the concentration giving a half-maximal response (EC50) is 1.19 µg/mL and the Top was found to be 945. In addition, in assay [1], the Kd turned out to be 4.5 nM, the dissociation rate constant (koff) came out at 0.000188 s⁻¹ and the kon was 41700 M⁻¹ s⁻¹.

B7: BGA6710 variant L92E, Y57K (antibody, V domains shown)
VH: QVQLVQSGAEVKKPGASVKVSCKASGYIFTSYYLHWVRQAPGQGLEWIGYINPQTGKTSYAQKFQGRVTMTRDTSTSTVYMELSSLRSEDTAVYYCAREYGNYNYPLDYWGQGTLVTVSS
VL: DIQMTQSPSSLSASVGDRVTITCRASENQYGYLAWYQQKPGKVPKLLIYNYKNLVEGVPSRFSGSGSGTDFTLTISSLQPEDVATYYCQHHEGTPYTFGQGTKVEIK
notes: IgG format
Regarding B7, in assay [2], it took 1.09 µg/mL to reach a half-maximal effect (EC50) and the Top amounted to 970. In assay [1], the Kd is 5.29 nM, the off-rate (koff) was 0.000177 s⁻¹ and the kon is 33400 M⁻¹ s⁻¹.

(Values after patent US20250115677A1, “Anti-CEA Antibody Drug Conjugates and Methods of Use” (BeiGene Switzerland GmbH, priority 2022, published 2025).)
